We go through 1 substance from PMC7522779.

The assay addresses Pex14p-S266D, Gal4p fusion protein for yeast two-hybrid (S. cerevisiae) (UniProt P53112). Kind of assay: two-hybrid; liquid ß-galactosidase assay with 2-nitrophenyl β-D-galactopyranoside; GAL4 BD and AD fusions in strain PCY2 pex14Δ; triplicate measurements of three independent transformants.

Where only a bound is given, the exact number is not on record here.

Sequence of UniProt P53112 (P53112 whole entry S266D, the tested form may be a part): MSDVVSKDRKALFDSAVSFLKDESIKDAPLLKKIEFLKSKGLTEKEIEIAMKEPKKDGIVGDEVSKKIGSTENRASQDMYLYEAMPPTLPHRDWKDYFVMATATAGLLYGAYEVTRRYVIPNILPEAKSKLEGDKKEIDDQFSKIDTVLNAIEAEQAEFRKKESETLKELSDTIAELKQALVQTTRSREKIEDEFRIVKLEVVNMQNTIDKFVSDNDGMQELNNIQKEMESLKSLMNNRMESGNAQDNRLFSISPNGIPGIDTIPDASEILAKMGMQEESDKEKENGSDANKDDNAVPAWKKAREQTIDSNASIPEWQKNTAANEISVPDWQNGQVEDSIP

“Pex13p, Gal4p fusion protein for yeast two-hybrid (from UniProt P80667 1-386) (natural protein)”: the binding as percent of wild-type level (ß-galactosidase activity) (% of wild-type levels) is below 50.
